Changes are numbered by the printed parent chain.
B1: L7C (conjugate)
chain: LPAPKNCVVSEVTEDSARLSWDDPWAFYESFLIQYQESEKVGEAIVLTVPGSERSYDLTGLKPGTEYTVSIYGVHNVYKDTNMRGLPLSAIFTT
modifications: left off: small tags and cut ends
B2: V9C (conjugate)
chain: B1 chain with C7L, V9C
modifications: left off: small tags and cut ends
B3: V12C (conjugate)
chain: B1 chain with C7L, V12C
modifications: left off: small tags and cut ends
B4: T13C (conjugate)
chain: B1 chain with C7L, T13C
modifications: left off: small tags and cut ends
B5: R18C (conjugate)
chain: B1 chain with C7L, R18C
modifications: left off: small tags and cut ends
B6: D22C (conjugate)
chain: B1 chain with C7L, D22C
modifications: left off: small tags and cut ends
B7: D23C (conjugate)
chain: B1 chain with C7L, D23C
modifications: left off: small tags and cut ends
B8: P24C (conjugate)
chain: B1 chain with C7L, P24C
modifications: left off: small tags and cut ends
B9: W25C (conjugate)
chain: B1 chain with C7L, W25C
modifications: left off: small tags and cut ends
B10: A26C (conjugate)
chain: B1 chain with C7L, A26C
modifications: left off: small tags and cut ends
B11: F27C (conjugate)
chain: B1 chain with C7L, F27C
modifications: left off: small tags and cut ends
B12: Y28C (conjugate)
chain: B1 chain with C7L, Y28C
modifications: left off: small tags and cut ends
B13: E29C (conjugate)
chain: B1 chain with C7L, E29C
modifications: left off: small tags and cut ends
B14: F31C (conjugate)
chain: B1 chain with C7L, F31C
modifications: left off: small tags and cut ends
B15: E39C (conjugate)
chain: B1 chain with C7L, E39C
modifications: left off: small tags and cut ends
B16: G42C (conjugate)
chain: B1 chain with C7L, G42C
modifications: left off: small tags and cut ends
B17: E43C (conjugate)
chain: B1 chain with C7L, E43C
modifications: left off: small tags and cut ends
B18: V46C (conjugate)
chain: B1 chain with C7L, V46C
modifications: left off: small tags and cut ends
B19: V49C (conjugate)
chain: B1 chain with C7L, V49C
modifications: left off: small tags and cut ends
B20: S52C (conjugate)
chain: B1 chain with C7L, S52C
modifications: left off: small tags and cut ends
B21: S55C (conjugate)
chain: B1 chain with C7L, S55C
modifications: left off: small tags and cut ends
B22: P2C (conjugate)
chain: B1 chain with P2C, C7L
modifications: left off: small tags and cut ends
B23: G73C (conjugate)
chain: B1 chain with C7L, G73C
modifications: left off: small tags and cut ends
B24: H75C (conjugate)
chain: B1 chain with C7L, H75C
modifications: left off: small tags and cut ends
B25: A3C (conjugate)
chain: B1 chain with A3C, C7L
modifications: left off: small tags and cut ends
B26: N76C (conjugate)
chain: B1 chain with C7L, N76C
modifications: left off: small tags and cut ends
B27: V77C (conjugate)
chain: B1 chain with C7L, V77C
modifications: left off: small tags and cut ends
B28: Y78C (conjugate)
chain: B1 chain with C7L, Y78C
modifications: left off: small tags and cut ends
B29: K79C (conjugate)
chain: B1 chain with C7L, K79C
modifications: left off: small tags and cut ends
B30: D80C (conjugate)
chain: B1 chain with C7L, D80C
modifications: left off: small tags and cut ends
B31: T81C (conjugate)
chain: B1 chain with C7L, T81C
modifications: left off: small tags and cut ends
B32: N82C (conjugate)
chain: B1 chain with C7L, N82C
modifications: left off: small tags and cut ends
B33: M83C (conjugate)
chain: B1 chain with C7L, M83C
modifications: left off: small tags and cut ends
B34: R84C (conjugate)
chain: B1 chain with C7L, R84C
modifications: left off: small tags and cut ends
B35: G85C (conjugate)
chain: B1 chain with C7L, G85C
modifications: left off: small tags and cut ends
B36: P4C (conjugate)
chain: B1 chain with P4C, C7L
modifications: left off: small tags and cut ends
B37: L86C (conjugate)
chain: B1 chain with C7L, L86C
modifications: left off: small tags and cut ends
B38: P87C (conjugate)
chain: B1 chain with C7L, P87C
modifications: left off: small tags and cut ends
B39: K5C (conjugate)
chain: B1 chain with K5C, C7L
modifications: left off: small tags and cut ends

test: Analytical size exclusion chromatography (percent monomer); format: physicochemical; conditions: NEM-conjugated cysteine variants; SEC, Abs280 monomer region 5.5-6 minutes vs oligomer region 4-5.3 minutes
Procedure: Size exclusion chromatography was used to determine the aggregation state of the FN3 domains binding EGFR. Aliquots (10 μL) of each purified FN3 domain were injected onto a Superdex 75 5/150 column (GE Healthcare) at a flow rate of 0.3 mL/min in a mobile phase of PBS pH 7.4. Elution from the column was monitored by absorbance at 280 nm.
The percent monomer for each protein was determined by integrating the Abs280 signal and comparing the peak in the monomer region (5.5-6 minutes) to the peaks in the oligomer region (4-5.3 minutes).

Molecule	Percent monomer
B1	93%
B2	double peak
B3	66%
B4	82%
B5	93%
B6	85%
B7	100%
B8	88%
B9	76%
B10	95%
B11	97%
B12	92%
B13	85%
B14	57%
B15	100%
B16	87%
B17	100%
B18	100%
B19	88%
B20	100%

Molecule	Percent monomer
B21	100%
B22	86%
B23	66%
B24	100%
B25	100%
B26	94%
B27	92%
B28	90%
B29	100%
B30	79%
B31	86%
B32	100%
B33	91%
B34	100%
B35	95%
B36	100%
B37	83%
B38	98%
B39	100%

test: Thermal stability of cysteine-NEM conjugates by DSC; format: physicochemical; conditions: DSC 25-100 °C, 1 °C per minute
Procedure: The thermal stability of cysteine-NEM conjugates was assessed by differential scanning calorimetry (DSC). The only the conjugates tested were those determined to express at high levels, conjugate efficiently, and retain EGFR binding. Additionally, cysteine variants within the BC and FG loops were excluded. Stability data was generated by heating a 400 μL aliquot of the variant from 25° C. to 100° C. at a scan rate of 1° C. per minute in a VP-DSC instrument (MicroCal). A second identical scan was completed on the sample in order to assess the reversibility of thermal folding/unfolding. Data was fitted to a 2-state unfolding model in order to calculate the melting temperature (Table 10).

Molecule	First Scan Tm [°C]
B2	46
B3	58
B4	63
B5	62
B13	63
B15	67
B16	65
B19	54

same assay, conditions: second identical scan

Molecule	Second Scan Tm [°C]
B2	46
B3	58
B4	63
B5	62
B13	66
B15	69
B16	67
B19	55

From patent publication US11702475B2, “Cysteine engineered fibronectin type III domain binding molecules” (Janssen Biotech, Inc., priority 2013, dated 2023)
